Test results: patent US20250289893A1 (OXFORD UNIVERSITY INNOVATION, published 2025)
Changes are numbered by the printed parent chain.

T1: Cynomolgus monkey CD1a protein (Cynomolgus monkey)
T1 chain: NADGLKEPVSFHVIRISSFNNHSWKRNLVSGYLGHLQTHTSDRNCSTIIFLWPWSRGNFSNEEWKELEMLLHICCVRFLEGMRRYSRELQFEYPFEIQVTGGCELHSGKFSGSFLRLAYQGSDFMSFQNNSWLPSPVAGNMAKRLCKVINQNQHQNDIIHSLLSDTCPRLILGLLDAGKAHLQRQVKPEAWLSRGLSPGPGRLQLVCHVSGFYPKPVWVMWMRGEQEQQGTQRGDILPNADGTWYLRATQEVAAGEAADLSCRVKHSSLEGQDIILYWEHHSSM

B1: 77A (VR11851) (antibody, V domains shown)
VH: QSVEESGGRLVTPGTPLTLTCTVSGFSLSSYAMSWVRQAPGKGLEWIGIISSSGTTYYASWAKGRFTISKTSTTVDLKITSPTTEDTATYFCARVDYYSSGWGGLWGPGTLVTVSS
VL: AVEMTQTPASMSAAVGGTVTIKCQASEDIYSNLAWYQQKPGQPPKLLIYGASTLASGVPSRFKGSGSGTEYTLTISGVQCDDAATYYCQCTYDTSSYGNTFGGGTEMVVE
notes: also called OX77a; antibody 77a
B2: 111 (VR12113) (antibody, V domains shown)
VH: QSVEESGGRLVTPGTPLTLTCTASGFSLSTYAMSWVRQAPGKGLEWIGIISSSGSTYYASWAKGRFTISKTSTTVDLKITSPTTEDTATYFCARETWYWLDLWGQGTLVTVSS
VL: B1 VL with M11V, K22N, T91A, T94S, N99T, T100P, M107V, E110K
notes: also called OX111
B3: 116 (VR12117) (antibody, V domains shown)
VH: QSVEESGGRLVTPGTPLTLTCTVSGFSLSNYAMSWVRQAPGKGLEWIGIIYTTGFTYYASWVKGRFTISKTSTTVDLKITSPTTEDTATYFCARGLATYVSPPTRLDLWGQGTLVTVSS
VL: AQVLTQTPSPVSAAVGGTVTINCQASQSIYNSKNLAWYQQKPGQPPKLLIYSASTLASGVPSRFKGSGSGTQFTLTISDLECDDAATYYCQGEFSCSSVDCATFGGGTEVVVK
notes: also called OX116
B4: 110 (VR12112) (antibody, V domains shown)
VH: QSVEESGGRLVTPGTPLTLTCTVSGFSLSSYAMIWVRQAPGKGLEWIGIINSSDNTHYATWAKGRFTISKTSTTVDLKITSPTTEDTATYFCARDPYDYGYGWYFDLWGPGTLVTVSS
VL: AQVLTQTPSPVSAAVGGTVTINCQASQSVFNNKNLAWYQQKPGQPPKLLIYKASTLASGVSSRFKGSGSGTQFALTISGVQCDDAATYYCQGEFSCSSTDCVTFGGGTEVVVK
notes: also called OX110; antibody 110

target: T2, human CD1a expressed on cells (human, UniProt P06126 17-327; P61769 21-119); assay: flow cytometry, MOLT4 cells, 0.316 µg/ml antibody
T2 construct: also called HEK - CD1a; C1R - CD1a
Experimental: (§1) CD1a-specific antibodies were identified by flow cytometry. Binding to proteins expressed on HEK, C1R and MOLT4 cell lines was assessed. […] The C1R-CD1a, C1R-empty vector and MOLT4 cell lines were washed in 1×PBS on the day required. All cell lines were counted and resuspended in 1×PBS and then stained for 30 minutes at 37° C. using the DiI or DiO cellular stains (Invitrogen). Cells were washed with flow cytometry buffer (1% bovine serum albumin, 2 mM EDTA and 0.1% sodium azide in PBS) before mixing 2 DiI-stained and DiO-stained populations together. The cells (20 μl/well) were then added to dilutions of antibody sample (B cell culture supernatant, TAP supernatant, clone supernatant, purified antibody solution) (20 μl/well) and incubated for 1 hour at 4° C. in a flow cytometry assay plate, before being washed with flow cytometry buffer. 10 μl/well of Alexafluor647-conjugated goat anti-species IgG Fc-specific F(ab′)2 fragment (Jackson ImmunoResearch), diluted 1:2500 in flow cytometry buffer, was added and incubated at 4° C. for 30 minutes, followed by washing with wash buffer. The fluorescence intensity was then measured on an iQue screener PLUS.
(§2) Binding was quantified as fold change in fluorescence intensity geomean over background assessed by flow cytometry.

Row | Binder | Fluorescence Intensity Geomean (normalized to background) [fold over background]
1 | B1 | 15.2
2 | B2 | 27.3
3 | B3 | 29.6
4 | B4 | 27.1

target: T2, human CD1a expressed on cells; assay: flow cytometry, MOLT4 cells, 100 µg/ml antibody
Experimental: as §1, §2

Row | Binder | Fluorescence Intensity Geomean (normalized to background) [fold over background]
5 | B1 | 0.8
6 | B2 | 3.9
7 | B3 | 3.7
8 | B4 | 5.2

target: T3, human CD1b expressed on HEK-293 cells (human, UniProt P29016 18-333; P61769 21-119); assay: flow cytometry, HEK-293 cells, 3.16 µg/ml antibody
T3 construct: also called HEK - CD1b
Experimental: (§3) Binding to proteins expressed on HEK, C1R and MOLT4 cell lines was assessed. […] The C1R-CD1a, C1R-empty vector and MOLT4 cell lines were washed in 1×PBS on the day required. All cell lines were counted and resuspended in 1×PBS and then stained for 30 minutes at 37° C. using the DiI or DiO cellular stains (Invitrogen). Cells were washed with flow cytometry buffer (1% bovine serum albumin, 2 mM EDTA and 0.1% sodium azide in PBS) before mixing 2 DiI-stained and DiO-stained populations together. The cells (20 μl/well) were then added to dilutions of antibody sample (B cell culture supernatant, TAP supernatant, clone supernatant, purified antibody solution) (20 μl/well) and incubated for 1 hour at 4° C. in a flow cytometry assay plate, before being washed with flow cytometry buffer. 10 μl/well of Alexafluor647-conjugated goat anti-species IgG Fc-specific F(ab′)2 fragment (Jackson ImmunoResearch), diluted 1:2500 in flow cytometry buffer, was added and incubated at 4° C. for 30 minutes, followed by washing with wash buffer. The fluorescence intensity was then measured on an iQue screener PLUS.
(§4) HEK-293 cells were transiently transfected with human CD1a, CD1b, CD1c or CD1d and co-transfected with human β2M.

Row | Binder | Fluorescence Intensity Geomean (normalized to background) [fold over background]
9 | B1 | 0.9
10 | B2 | 1.1
11 | B3 | 1
12 | B4 | 1.1

Target: T1, Cynomolgus monkey CD1a protein
Assay: ELISA, 0.01 µg/ml antibody

Row | Binder | Optical Density (OD)
13 | B1 | 0.1
14 | B2 | 0.48
15 | B3 | 0.07
16 | B4 | 0.22

target: T2, human CD1a expressed on cells; assay: flow cytometry, C1R cells, 0.0316 µg/ml antibody
Experimental: as §3, §2

Row | Binder | Fluorescence Intensity Geomean (normalized to background) [fold over background]
17 | B1 | 17
18 | B2 | 26
19 | B3 | 24.1
20 | B4 | 17.1

target: T2, human CD1a expressed on cells; assay: flow cytometry, MOLT4 cells, 0.1 µg/ml antibody
Experimental: as §1, §2

Row | Binder | Fluorescence Intensity Geomean (normalized to background) [fold over background]
21 | B1 | 12.4
22 | B2 | 20.6
23 | B3 | 22.6
24 | B4 | 16.8

target: T4, chimeric CD1a pool B protein [human CD1a lipid binding domain, mouse CD1d Ig domain] (human; mouse, UniProt P06126 18-201; P11609 205-297, limits assumed); assay: ELISA, 0.1 µg/ml antibody
T4 sequence (P06126 other isoform, or with tags, fused parts or gaps mutant limits assumed): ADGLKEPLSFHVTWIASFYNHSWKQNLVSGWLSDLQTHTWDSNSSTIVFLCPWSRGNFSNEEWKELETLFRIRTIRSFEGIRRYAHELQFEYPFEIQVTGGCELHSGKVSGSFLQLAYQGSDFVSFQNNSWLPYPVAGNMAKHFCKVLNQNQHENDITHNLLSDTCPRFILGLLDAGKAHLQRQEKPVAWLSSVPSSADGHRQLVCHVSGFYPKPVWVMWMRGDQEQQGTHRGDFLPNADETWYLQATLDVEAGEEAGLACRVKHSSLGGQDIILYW
Experimental: (§5) CD1a-specific antibodies were identified by ELISA. […] 20 μl/well of peroxidase-conjugated goat anti-species IgG Fc-specific F(ab′)2 fragment (Jackson ImmunoResearch), diluted 1:5000 in block buffer was added and incubated at room temperature for 1 hour, followed by washing with wash buffer.
(§6) The antibodies were titrated through a dilution series and compared to a control rabbit IgG antibody. […] Data shown for purified antibodies.

Row | Binder | Optical Density (OD)
25 | B1 | 1.25
26 | B2 | 1.25
27 | B3 | 1.25
28 | B4 | 1.02

target: T5, Cynomolgus monkey CD1a expressed on HEK-293 cells (Cynomolgus monkey, UniProt A0A2K5VQ68 17-326); assay: flow cytometry, HEK-293 cells, 0.01 µg/ml antibody
T5 sequence (A0A2K5VQ68 entry or part of it): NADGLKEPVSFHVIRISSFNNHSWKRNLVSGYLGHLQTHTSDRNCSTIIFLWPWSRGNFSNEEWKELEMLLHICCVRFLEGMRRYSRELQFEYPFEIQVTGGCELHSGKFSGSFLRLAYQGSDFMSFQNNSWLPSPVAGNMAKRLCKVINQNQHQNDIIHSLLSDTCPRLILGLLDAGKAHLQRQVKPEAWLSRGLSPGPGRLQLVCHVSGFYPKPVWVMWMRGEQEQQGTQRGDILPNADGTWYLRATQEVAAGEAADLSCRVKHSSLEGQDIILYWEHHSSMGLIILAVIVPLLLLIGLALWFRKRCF
Experimental: as §3, §2

Row | Binder | Fluorescence Intensity Geomean (normalized to background) [fold over background]
29 | B1 | 1.7
30 | B2 | 8.9
31 | B3 | 1
32 | B4 | 1.2

target: T4, chimeric CD1a pool B protein [human …; assay: ELISA, 31.6 µg/ml antibody
Experimental: as §5, §6

Row | Binder | Optical Density (OD)
33 | B1 | 1.33
34 | B2 | 1.35
35 | B3 | 1.35
36 | B4 | 1.4

target: T6, human CD1a protein (pool B) (human, UniProt P06126 18-295, limits assumed); assay: ELISA, 1 µg/ml antibody
T6 construct: Recombinant protein of the ELISA (coated) and the Biacore T200 titration; whole entry named; also called human CD1a pool B; full length CD1a
T6 sequence (P06126 18-295 limits assumed): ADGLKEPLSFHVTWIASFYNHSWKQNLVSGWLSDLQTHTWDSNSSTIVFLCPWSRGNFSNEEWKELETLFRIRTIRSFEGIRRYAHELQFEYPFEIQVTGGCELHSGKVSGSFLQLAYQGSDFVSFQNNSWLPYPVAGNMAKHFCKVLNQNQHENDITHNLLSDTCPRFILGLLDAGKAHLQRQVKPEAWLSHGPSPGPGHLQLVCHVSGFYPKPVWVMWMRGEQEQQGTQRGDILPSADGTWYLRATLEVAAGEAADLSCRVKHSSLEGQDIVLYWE
Experimental: as §5
(§7) The antibodies were titrated through a dilution series and compared to a control rabbit IgG antibody.

Row | Binder | Optical Density (OD)
37 | B1 | 1.34
38 | B2 | 1.14
39 | B3 | 1.15

target: T5, Cynomolgus monkey CD1a expressed on …; assay: flow cytometry, HEK-293 cells, 1 µg/ml antibody
Experimental: as §3, §2

Row | Binder | Fluorescence Intensity Geomean (normalized to background) [fold over background]
40 | B1 | 10.6
41 | B2 | 12.9
42 | B3 | 0.8

target: Chinese variant CD1a protein (human) (UniProt P06126); assay: ELISA, 10 µg/ml antibody
Sequence (P06126 18-295, change not shown): as the sequence (P06126 18-295 limits assumed) above

Row | Binder | Optical Density (OD)
43 | B1 | 0.99
44 | B2 | 1.41
45 | B3 | 1.51
46 | B4 | 1.75

target: T2, human CD1a expressed on cells; assay: flow cytometry, MOLT4 cells, 0.0316 µg/ml antibody
Experimental: as §1, §2

Row | Binder | Fluorescence Intensity Geomean (normalized to background) [fold over background]
47 | B1 | 8.7
48 | B2 | 12.4
49 | B3 | 14.9
50 | B4 | 1.6

target: T5, Cynomolgus monkey CD1a expressed on …; assay: flow cytometry, HEK-293 cells, 0.1 µg/ml antibody
Experimental: as §3, §2

Row | Binder | Fluorescence Intensity Geomean (normalized to background) [fold over background]
51 | B1 | 5.7
52 | B2 | 25.8
53 | B3 | 1
54 | B4 | 3.3

target: T2, human CD1a expressed on cells; assay: flow cytometry, MOLT4 cells, 3.16 µg/ml antibody
Experimental: as §1, §2

Row | Binder | Fluorescence Intensity Geomean (normalized to background) [fold over background]
55 | B1 | 7.4
56 | B2 | 18.9
57 | B3 | 23.9
58 | B4 | 22.6

target: T6, human CD1a protein (pool B); assay: ELISA, 0.0316 µg/ml antibody
Experimental: as §5, §7

Row | Binder | Optical Density (OD)
59 | B1 | 1.25
60 | B2 | 1.1
61 | B3 | 0.95
62 | B4 | 0.81

target: T7, human CD1d expressed on HEK-293 cells (human, UniProt P15813 20-335; P61769 21-119); assay: flow cytometry, HEK-293 cells, 31.6 µg/ml antibody
T7 construct: also called HEK - CD1d
Experimental: as §3, §4

Row | Binder | Fluorescence Intensity Geomean (normalized to background) [fold over background]
63 | B1 | 1
64 | B2 | 1
65 | B3 | 1
66 | B4 | 1.1

target: T2, human CD1a expressed on cells; assay: flow cytometry, HEK-293 cells, 31.6 µg/ml antibody
Experimental: as §3, §4

Row | Binder | Fluorescence Intensity Geomean (normalized to background) [fold over background]
67 | B1 | 8.2
68 | B2 | 6.3
69 | B3 | 5.6
70 | B4 | 10.9

target: T8, human CD1c expressed on HEK-293 cells (human, UniProt P29017 18-333; P61769 21-119); assay: flow cytometry, HEK-293 cells, 31.6 µg/ml antibody
T8 construct: also called HEK - CD1c
Experimental: as §3, §4

Row | Binder | Fluorescence Intensity Geomean (normalized to background) [fold over background]
71 | B1 | 0.9
72 | B2 | 1
73 | B3 | 1
74 | B4 | 1

target: T3, human CD1b expressed on HEK-293 cells; assay: flow cytometry, HEK-293 cells, 31.6 µg/ml antibody
Experimental: as §3, §4

Row | Binder | Fluorescence Intensity Geomean (normalized to background) [fold over background]
75 | B1 | 1
76 | B2 | 1
77 | B3 | 1
78 | B4 | 1.1

target: T4, chimeric CD1a pool B protein [human …; assay: ELISA, 0.0316 µg/ml antibody
Experimental: as §5, §6

Row | Binder | Optical Density (OD)
79 | B1 | 1.09
80 | B2 | 1.19
81 | B3 | 1.13
82 | B4 | 0.73

target: T6, human CD1a protein (pool B); assay: ELISA, 0.1 µg/ml antibody
Experimental: as §5, §7

Row | Binder | Optical Density (OD)
83 | B1 | 1.36
84 | B2 | 1.06
85 | B3 | 1.07

target: T2, human CD1a expressed on cells; assay: flow cytometry, MOLT4 cells, 10 µg/ml antibody
Experimental: as §1, §2

Row | Binder | Fluorescence Intensity Geomean (normalized to background) [fold over background]
86 | B1 | 4.1
87 | B2 | 9.3
88 | B3 | 11.7
89 | B4 | 14.7

target: T2, human CD1a expressed on cells; assay: flow cytometry, C1R cells, 1 µg/ml antibody
Experimental: as §3, §2

Row | Binder | Fluorescence Intensity Geomean (normalized to background) [fold over background]
90 | B1 | 10.3
91 | B2 | 28
92 | B3 | 28.7
93 | B4 | 28.2

target: T4, chimeric CD1a pool B protein [human …; assay: ELISA, 1 µg/ml antibody
Experimental: as §5, §6

Row | Binder | Optical Density (OD)
94 | B1 | 1.26
95 | B2 | 1.36
96 | B3 | 1.42
97 | B4 | 1.45
